Source: article PMC12552534

How the values were obtained:
[1] = molecular target: C terminally LgBiT-fused C protein (Sendai virus); experiment: split reporter (BiFC, NanoBiT); NanoBiT; 293T cells co-transfected with LgBiT-fused C and SmBiT-fused STAT1, STAT3 or SV40 large T antigen (negative control), 24 h; luciferase activity measured in NP-40 lysates, normalised to GAPDH; control set to 1
[2] = molecular target: N terminally histidine-tagged N-terminal domain of STAT3 (STAT3ND) (human) (UniProt P40763); experiment: SEC; Y3 and STAT3ND alone or mixed equimolar (100 μM in text and methods, 50 μM in the legend), preincubated 10 min on ice; Superdex 75 Increase 10/300 GL, 20 mM Tris-HCl pH 8.0, 100 mM NaCl, 4 °C, 0.5 ml/min; fractions on SDS-PAGE
[3] = molecular target: N terminally histidine-tagged N-terminal domain of STAT3 (STAT3ND) (human) (UniProt P40763); experiment: native MS; Y3 (50 μM) complexed with STAT3ND (50 μM), buffer-exchanged to 450 mM ammonium acetate pH 8.0, nano-ESI, native condition
[4] = molecular target: N terminally histidine-tagged Y3 (C-terminal region of Sendai virus C protein) (Sendai virus); experiment: as above

Sequence of C terminally LgBiT-fused C protein (Sendai virus) (P04862 1-204): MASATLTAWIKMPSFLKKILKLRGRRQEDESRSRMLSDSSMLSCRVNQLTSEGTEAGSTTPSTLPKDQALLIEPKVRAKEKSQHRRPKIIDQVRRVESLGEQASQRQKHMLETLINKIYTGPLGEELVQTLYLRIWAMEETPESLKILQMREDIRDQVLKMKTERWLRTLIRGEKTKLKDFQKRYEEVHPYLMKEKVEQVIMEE

## N terminally SmBiT-fused STAT3 (from UniProt P40763 1-770) (natural protein)
[1]
  luciferase activity, fold lower than with SmBiT-fused STAT1: 4.8 fold
  luciferase activity, fold over the SmBiT-fused SV40 large T antigen negative control: 1.3 fold

## N terminally histidine-tagged N-terminal domain of STAT3 (STAT3ND) (from UniProt P40763 3-138) (domain or fragment)
[2]
  stoichiometry N: 2

## N terminally histidine-tagged Y3 (C-terminal region of Sendai virus C protein) (domain or fragment)
[3]
  stoichiometry N (Y3 per STAT3ND (1:2)): 0.5
[4]
  stoichiometry N: 2
